Assay: soluble on expression in E. coli; label from the status in PepcDB or PDB records
For “MSLLTQIKGEWVLGFADGNHRMLRDASVVYEGERIVHVGTEFDGVADRVIDARGCLVAPGFIDTHVHSGHRALHKLLADGGRPDLFGQPYMDVTIARDGTRIKGYPNYLSREEAAVDPGIALHAAFTVAELLRNGVTTFVELGGHVMVQEALWRECERLGVRGYLGAGYDSGRWAADDQGRLRRVPYPDGGDHLFEEAVAFIKRVQAAGNDLVNGILVPREVENCSVDILRRTVQAAQELGVPMATHAGYNVIEFYETVREHRMTPIELLHSVGMLGPRLNIGHANLISDSPRLNYSGGRDLALMGEHRVSISHCPINIVRRARVLDSWKKYREAGVNLTIGSDTYPRDMVMNMRTASYHGKVMSHDLTAASAAEVFEAATLGGARSLGRTDIGRLEPGARADVIAINVGRQDVLRYGPIWDPIRSLVECGVGDDVELVVTNGQVRMEQGRIVGVDLGALRAEAQQFADNVWRDLQDWDPLRRTAQAMCPPLFCPDCMEGHHHHHH”, the “soluble on expression in E. coli” value was “soluble”. With “MTIYMFNNVNLQRQYMIDTIIFDFDGVILNSEPMHFEAIVQVLNQSGINLAYEEYMTHYLGLSDISLFPKILNDKGLAFSSTEIHQVIERKVRVYNELIENSEQLPMTPDLDWFLVRVARQYGKIGICSGSNRHSIIKILEKIHCGRLACYFKTIVSCEDVSLGKPSPEGYLLAAHRLQSKPENCLVIEDSEHGVAAAKAGGMLVAGLLTTLSRDLLANADMIVHDFKELDHLLNSH” the “soluble on expression in E. coli” value was “not soluble”. In the case of “MGSDKIHHHHHHMRHDKFAGPAYTIQIVSNALDMLELLAMRPANPSLGRLAGSLNLTRNKAYRLLSTLCERGLVEQDPETGTYAIGVAALELAQRLIRQAPVVNHAHPIMEELARKHDEAVYMTVLRGDDVVFLDMVDCERQVKATPLIGRRFPYFTNAAGKAIKALEGADPLNLLKKRGRKNNSLDVGSLLSELHEIRHKGVAVDCGGLGDGIVSVAVAVRDYAGKVVGAITMLVPSFRAVADRLESEIIPSLQEGADLLSMKLGHGPC”, the “soluble on expression in E. coli” value is reported as “not soluble”. In the case of “MKQKIWYTYDDIHRVIKALAEKIRNADIKYDAMIAIGGGGFIPARMLRCFLEIPIYAVTTAYYDSDNEGQVTEEVKKVQWLDPVPEALRGKNVLVVDEVDDSRVTMEFCLKELLKEDFGTIGVAVLHEKIKAKAGKIPEGIPYFSGITVEDWWINYPWDALDIDEHNRLAEAGRG”, the “soluble on expression in E. coli” value is reported as “not soluble”. For “EHNKRVNLANAGRVSSAEGIKKLRASGVKFVWVDQSLSAQQCVFKPVEEPIDIEVGDKTLSVSSKVQRAYRSREVQHKRAKKLIAEAKGLAQKLLNQTFEGKVIQVDEIESWADDMIESVFIDSDALQCVSALRQKDSYLLEHSVNVACLLVSFGKHLGLDKDTLKQLAIGGIIHDVGKIKVDDKILHKPARLTPEEFEHMKLHQVFAGEIIVEVKGLSDVSRDVCLMHHEKLDGTGYPRGLSGDEIPIHGRMSCIVDIYDALTADRCYKKGMSSAEAFKILLSLTPFHLDPDL”, the “soluble on expression in E. coli” value was “not soluble”. For “MHHHHHHSSGVDLGTENLYFQSMTTSLEALPTGTVLTDKSGRQWKLKSFQTRDNQGILYEAAPTSTLTCDSGPQKQKFSLKLDAKDGRLFNEQNFFQRAAKPLQVNKWKKLYSTPLLAIPTCMGFGVHQDKYRFLVLPSLGRSLQSALDVSPKHVLSERSVLQVACRLLDALEFLHENEYVHGNVTAENIFVDPEDQSQVTLAGYGFAFRYCPSGKHVAYVEGSRSPHEGDLEFISMDLHKGCGPSRRSDLQSLGYCMLKWLYGFLPWTNCLPNTEDIMKQKQKFVDKPGPFVGPCGHWIRPSETLQKYLKVVMALTYEEKPPYAMLRNNLEALLQDLRVSPYDPIGLPMVP”, the “soluble on expression in E. coli” value was “soluble”. In the case of “MFLGTYTPKLDDKGRLTLPAKFRDALAGGLMVTKSQDHSLAVYPRAAFEQLARRASKAPRSNPEARAFLRNLAAGTDEQHPDSQGRITLSADHRRYASLSKDCVVIGAVDYLEIWDAQAWQNYQQIHEENFSAASDEALGDIF”, the “soluble on expression in E. coli” value is reported as “not soluble”. With “DKGTALLVNRSLRFGERTAEELMTPRVKIVTLSTTDTVADLIDTASRTGFSRFPVVESDLDDAVGVVHIKHAFAVPAHRRRTARLNSLAQKVPVVPSSLDGDALMERIRSDGMQVAFVVDEYGGTAGMVTMEDLIEEIVGDVR” the “soluble on expression in E. coli” value was “not soluble”. In the case of “LQQFLDALASSPEKIEFETTMAVIEDNYDFTPAAFTNGNTQNDANENNGSCKIFAFGLLNALDKEATLACFGRFYREDVLLHPENNDHQNIRNFMVTGWEGIQFETSALTAK”, the “soluble on expression in E. coli” value is reported as “not soluble”. For “MMGLLSTIRGKKEPVVGNGIGSAQVGPLNAKTKKLVIQEWPRVLAQCPELFTEIWHKSATRSTSIKLAFGIAENESPMQNAAFLGLSSTIQAFFYKLIITYELNDDQVREACEQLGARHVDFISRGFNSHFWDIFLVCMAEKIDETLSAYIPDEDKRNEMILAWQRVINSIVHQMRNGYSDRRKQQLGGTKGGSNNGF”, the “soluble on expression in E. coli” value was “not soluble”. For “SNSGEPAPVLSSPTPTDLSTFLSFPSPEKLLRLGPKVSVLIVQQTDTSDPEKVVSAFLKVASVFRDDASVKTAVLDAIDALMKKAFSCSSFNSNTFLTRLLIHMGLLKSEDKIKAIPSLHGPLMVLNHVVRQDYFPKALAPLLLAFVTKPNGALETCSFARHNLLQTLYNI”, the “soluble on expression in E. coli” value was “soluble”. With “LTFSLNFATSSKDSYGTGWLIDWKGDENKPSNTDPFLIYLATNLHVVDALRNPQDYEPYNKDSNGQDYGNRDITHFFALGKYTDPGLLGVETKE” the “soluble on expression in E. coli” value was “soluble”. In the case of “DLKYILETKLEEERNHLEELLEKVEEDYEGINYDEVLEALKLFKDNYELPKSKIKRKIRIFLIKENILFLNPQKGTLKPQSYLVWNAIKRML”, the “soluble on expression in E. coli” value is reported as “soluble”. For “MGSDKIHHHHHHMSRDLPPLNALRAFESTARFGSVSQAAEQLSVTHGAVSRQLKVLEEHLGVSLFSKDGRGLKLTDAGIRLRDASADAFDRLRSVCAELSKGSVDAPFVLGCSGSLLARWFIPRLSRLNAELPDLRLHLSAGEGDLDPRRPGLDALLVFAEPPWPADMQVFELASERIGPVLSPRFARFESMRDAPANALLEESLLQTTSRPQAWPSWAQQNGIDPDALRYGQGFEHLYYLLEAAVAGLGIAIAPEPLVIDDLKAGRLAAPWGFSETPAQLALWVPRRAADGRARQLAQWLKNELKRSGDPIRN”, the “soluble on expression in E. coli” value was “not soluble”. For “MPSGVDGVGLLVRWLIEGSRGGVTRARILMLLRERPRNAHQLSQELGLNYRTVLHHLEVLARHGLIARLYEGYGAPYALTNLAERHWSVIEDSIRRVGVRL”, the “soluble on expression in E. coli” value was “not soluble”. In the case of “MSKTRMEKLKTLKTIAETLNQGHDIKATLDEVLKELLSLTNLQSGWIFLIEEDGSYTLAADAYLPPALSRKEKVLMCEGECYCLTKFNNGGLRKAANIMNCKRIESAENLHCFDTEGITHHATVPLEDGDRRFGLLNVAAAGKTMFDEEELHLLESVAFQIGTAIQRMRLSEYQQK”, the “soluble on expression in E. coli” value is reported as “not soluble”. In the case of “MRGSHHHHHHTDPALRAQDAAPRLTFTLRDEERLMMKIGVFVPIGNNGWLISTHAPQYMPTFELNKAIVQKAEHYHFDFALSMIKLRGFGGKTEFWDHNLESFTLMAGLAAVTSRIQIYATAATLTLPPAIVARMAATIDSISGGRFGVNLVTGWQKPEYEQMGIWPGDDYFSRRYDYLTEYVQVLRDLWGTGKSDFKGDFFTMNDCRVSPQPSVPMKVICAGQSDAGMAFSARYADFNFCFGKGVNTPTAFAPTAARMKQAAEQTGRDVGSYVLFMVIADETDDAARAKWEHYKAGADEEALSWLTEQSQKDTRSGTDTNVRQMADPTSAVNINMGTLVGSYASVARMLDEVASVPGAEGVLLTFDDFLSGIETFGERIQPLMQCRAHLPALTQEVAGLCGR”, the “soluble on expression in E. coli” value is reported as “soluble”. For “MGSDKIHHHHHHMNHPSVFHPGPAAISPQQRLLLMHEGEWEDFIEECVRQLQKEGNYVEVVALGGSGDKGRDVCGYSKEYPAAGTWDLYQAKHYDSPLTPSEFFPELAKFVTCVWREDYTRPAKYFICASRDVGTTLFDLLKNPVRLKERLLDDWRKKGGKFGKFKQPLDADLEKFIEVFPFDVVKRLPPMELLSIHERDTASYWARFGVLAPRENDPEVPPKPVSSESTYVTALLRVYAEHAQVKIDDVPDIPPAHGAHFKAQRRLFYSAEGLHRFSRDKLPGAFEALLDEVENGIGAELTFPHESGFVRLHSVLKTANVLQIMNNPLRARLRSGDLQGSCHHLANQGRAQWVESDEADGESV”, the “soluble on expression in E. coli” value was “not soluble”. For “MSLHEMSFAEAIIRNVLRFAEEKQAKTVTSVRVRVGELLLINPEQLQFCFSVASKGTIAEGAKLEISVERADIRCLLCGRELSKDEMLCECGGFAQVKGGKDFILESVVVEVEGHHHHHH”, the “soluble on expression in E. coli” value was “soluble”. With “MNDELFNLIERLANLLRQETRLEGQSLGLQPIQQEALYYLSTCNRYSDTTLAVTEFLGLTKGTVSQSLKILESKSLIAKVKDKKDKRITHLKVTETGREFLMKTCPPQKFTDAIAGLSVDEEFETKTLLKKVLSNYQLATGRTAFGVCKHCKFNRKTSDGILCDLTKEALSSDDIMLICREYVV” the “soluble on expression in E. coli” value was “not soluble”. In the case of “MGSDKIHHHHHHMAKAFASQGDMSEKKISFTEVGEGLYAFTAEGDPNSGVIIGDDSVMVVEAQATPRLAQKVIDCIREVTDKPISHVVLTHYHAVRVLGASAFGAGQVIMSDTARSMVVERGQEDWDSEFQRFPRLFEGHESIPGLTWPTTTFSDSMTVYLGKRRVDIMHLGRAHTAGDAVIHVPDQNVMFTGDIVEYHSACYCGDGHFNDWGNTLDNIAWFDVDAIAPGRGDALVGKEMVNAAIENTRDFVQSTYRPAARVAARGGSLKEAWDAVRAECDPKFADYAIYEHCLPFNVARAYDEARGIDTPRIWTAQRDLEMWEALQG”, the “soluble on expression in E. coli” value is reported as “not soluble”. For “MSSPERDEGTPVPDSRGHCDADTVSGTPDRRPLLGEEKAVTGEGRAGIVGSPAPRDVEGLVPQIRVAAARQGESPPSVRGPAAAVFVTPKYVEKAQETRGAESQARDVKTEPGTVAAAAEKSEVATPGSEEVMEVEQKPAGEEMEMLEASGGVREAPEEAGPWHLGIDLRRNPLEAIQLELDTVNAQADRAFQHLEQKFGRMRRHYLERRNYIIQNIPGFWMTAFRNHPQLSAMIRGRDAEMLRYVTSLEVKELRHPKTGCKFKFFFRRNPYFRNKLIVKEYEVRSSGRVVSLSTPIIWRRGHEPQSFIRRNQDLICSFFTWFSDHSLPESDRIAEIIKEDLWPNPLQYYLCREGIRRPRRRPIREPVEIPRPFGFQSG”, the “soluble on expression in E. coli” value was “not soluble”. In the case of “MSHLVYVSRVVAAPIERVWPHLRDFNGLSAWHPGVADSRLEEGGRDDAPGTVRFLSLNPSGYVRERLLMLDDAGRSLRYAIIETDLPMRDYVAGVDLCPVTEGGGTFAQWWADFDVVAGANRDEVARLVGEGVFAAGLQALDQYLRGRQALEHHHHHH”, the “soluble on expression in E. coli” value is reported as “not soluble”. With “MLVKPPYSYIALITMAIQNAPEKKITLNGIYQFIMDRFPFYRENKQGWQNSIRHNLSLNECFVKVPRDDKKPGKGSYWTLDPDSYNMFENGSFL” the “soluble on expression in E. coli” value was “soluble”. With “MTVSDRELEECIRALLDARADSASICPSDVARAVAPDDWRPLMEPVREAAGRLADAGEVEVTQKGAVVDPRSARGPIRIRWTRTD” the “soluble on expression in E. coli” value was “soluble”. In the case of “SNAMTHIQLDFSKTLEFFGEHELKQQQEIVKSIHKTIHEGTGAGSDFLGWVDLPVDYDKEEFSRIVEASKRIKENSDVLVVIGIGGSYLGARAAIEMLTSSFRNSNEYPEIVFVGNHLSSTYTKELVDYLADKDFSVNVISKSGTTTEPAVAFRLFKQLVEERYGKEEAQKRIFATTDKEKGALKQLATNEGYETFIVPDDVGGRYSVLTAVGLLPIATAGINIEAMMIGAAKAREELSSDKLEENIAYQYATIRNILYAKGYTTEMLINYEPSMQYFNEWWKQLFGESEGKDFKGIYPSSANYTTDLHSLGQYVQEGRRFLFETVVKVNHPKYDITIEKDSDDLDGLNYLAGKTIDEVNTKAFEGTLLAHTDGGVPNMVVNIPQLDEETFGYVVYFFELACAMSGYQLGVNPFNQPGVEAYKQNMFALLGKPGFEDLKKELEERL”, the “soluble on expression in E. coli” value is reported as “soluble”.

From the DeepSol protein solubility set
